Laboratory results reported in patent US20240383984A1 (Genentech, published 2024).
Positions count from the first letter of the chain named. Names may count otherwise.

Columns and labels:
[1] = target: truncated FcRH5 (deletion of amino acids 1-744) with N-terminal gD tag, on cells (human) (UniProt Q96RD9); experiment: cell-based or functional assay
[2] = target: T1, cynomolgus FcRH5 protein fragment (soluble) (cynomolgus monkey); experiment: SPR (BIACORE), Cyno FcRH5, 1:1 binding model
T1 construct: whole entry named; also called Cyno FcRH5 (BIACORE analyte)
T1 chain: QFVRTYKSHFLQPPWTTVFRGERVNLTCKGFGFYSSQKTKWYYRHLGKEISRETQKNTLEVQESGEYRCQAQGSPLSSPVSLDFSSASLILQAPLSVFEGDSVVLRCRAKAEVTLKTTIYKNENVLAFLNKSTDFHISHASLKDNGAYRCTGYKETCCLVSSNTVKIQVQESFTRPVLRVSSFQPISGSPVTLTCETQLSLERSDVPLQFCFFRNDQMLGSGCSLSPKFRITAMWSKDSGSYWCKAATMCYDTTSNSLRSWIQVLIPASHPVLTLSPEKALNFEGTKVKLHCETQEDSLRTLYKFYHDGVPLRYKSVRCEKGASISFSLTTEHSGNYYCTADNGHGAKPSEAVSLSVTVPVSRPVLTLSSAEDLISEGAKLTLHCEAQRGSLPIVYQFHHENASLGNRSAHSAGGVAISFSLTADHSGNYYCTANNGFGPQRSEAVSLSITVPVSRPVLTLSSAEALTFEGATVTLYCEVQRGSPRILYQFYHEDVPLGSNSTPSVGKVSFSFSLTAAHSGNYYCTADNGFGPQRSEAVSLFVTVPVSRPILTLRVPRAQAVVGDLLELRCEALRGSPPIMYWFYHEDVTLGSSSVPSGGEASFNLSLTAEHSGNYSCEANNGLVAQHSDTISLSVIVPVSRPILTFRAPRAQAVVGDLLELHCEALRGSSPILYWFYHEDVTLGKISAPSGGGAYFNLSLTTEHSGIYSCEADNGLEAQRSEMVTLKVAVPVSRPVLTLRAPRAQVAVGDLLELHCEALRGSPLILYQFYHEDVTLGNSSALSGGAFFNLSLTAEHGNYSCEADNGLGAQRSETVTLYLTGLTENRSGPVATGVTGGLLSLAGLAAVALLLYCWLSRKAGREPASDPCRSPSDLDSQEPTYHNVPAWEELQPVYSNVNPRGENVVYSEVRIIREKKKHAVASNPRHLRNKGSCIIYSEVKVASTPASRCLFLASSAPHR

[3] = target: T1, cynomolgus FcRH5 protein fragment …; experiment: BIACORE
[4] = target: T2, human FcRH5 protein fragment (soluble) (human, UniProt Q96RD9 16-851); experiment: BIACORE
T2 construct: whole entry named; also called soluble human FcRH5; Human FcRH5 (BIACORE analyte)
T2 sequence: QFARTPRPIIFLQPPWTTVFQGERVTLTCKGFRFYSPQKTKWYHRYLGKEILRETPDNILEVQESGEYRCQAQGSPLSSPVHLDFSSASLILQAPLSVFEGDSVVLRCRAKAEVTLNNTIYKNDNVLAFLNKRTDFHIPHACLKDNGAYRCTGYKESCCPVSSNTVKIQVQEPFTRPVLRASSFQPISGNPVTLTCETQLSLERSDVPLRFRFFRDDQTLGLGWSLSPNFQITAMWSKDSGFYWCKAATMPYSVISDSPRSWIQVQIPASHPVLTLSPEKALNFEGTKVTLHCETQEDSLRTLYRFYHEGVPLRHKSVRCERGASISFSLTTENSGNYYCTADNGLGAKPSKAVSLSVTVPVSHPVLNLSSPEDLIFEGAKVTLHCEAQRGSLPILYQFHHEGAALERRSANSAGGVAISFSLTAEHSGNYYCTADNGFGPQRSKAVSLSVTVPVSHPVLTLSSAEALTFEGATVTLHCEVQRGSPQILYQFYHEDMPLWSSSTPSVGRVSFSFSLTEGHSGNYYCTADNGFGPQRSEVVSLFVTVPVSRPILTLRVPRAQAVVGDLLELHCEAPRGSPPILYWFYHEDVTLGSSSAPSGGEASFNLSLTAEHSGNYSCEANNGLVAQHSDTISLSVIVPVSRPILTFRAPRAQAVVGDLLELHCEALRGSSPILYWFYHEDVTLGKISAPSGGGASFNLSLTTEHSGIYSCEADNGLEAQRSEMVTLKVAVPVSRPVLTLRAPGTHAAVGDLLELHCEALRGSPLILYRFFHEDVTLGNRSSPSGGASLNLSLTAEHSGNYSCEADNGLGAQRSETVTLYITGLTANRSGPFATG

[5] = target: T2, human FcRH5 protein fragment (soluble); experiment: SPR (BIACORE), Human FcRH5, 1:1 binding model
human CD3ε [6] = target: T3, human CD3ε (human, UniProt P07766 23-126, limits assumed); experiment: BIACORE, monovalent
T3 construct: also called hCD3ε
T3 sequence (P07766 23-126 limits assumed): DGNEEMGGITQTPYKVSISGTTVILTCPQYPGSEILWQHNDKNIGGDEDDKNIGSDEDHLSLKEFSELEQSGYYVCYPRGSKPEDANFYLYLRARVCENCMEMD

human CD3ε [7] = target: T3, human CD3ε; experiment: assay not stated
[8] = target: T2, human FcRH5 protein fragment (soluble); experiment: SPR screening
human CD3ε [9] = target: T3, human CD3ε; experiment: BIACORE and Scatchard, monovalent
[10] = target: T2, human FcRH5 protein fragment (soluble); experiment: SPR (BIACORE), antibody as ligand, HuFcRH5 as sample in stepwise injections, 25 °C, 1:1 binding model

anti-gD/UCHT1.v9 TDB (bispecific antibody)
target cell killing with the truncated FcRH5 construct, EC50 [1]: 0.19 nM

B1: hu1G7.v93/38E4.v1 TDB (bispecific antibody, V domains shown)
VH 1: EVQLVESGPGLVKPSETLSLTCTVSGFSTTRFGVHWVRQPPGKGLEWLGVIWRGGSTDYNAAFVSRLTISKDNSKNQVSLKLSSVTAADTAVYYCSNHYYGSPDYALDNWGQGTLVTVSS
VL 1: DIQMTQSPSSLSASVGDRVTITCKASQDVSNLVVWFQQKPGKAPKLLIYSGSYRYSGVPSRFSGSGSGTDFTLTISSLQPEDFATYYCQQHYSPPYTFGQGTKVEIK
VH 2: EVQLVQSGAEVKKPGASVKVSCKASGFTFTSYYIHWVRQAPGQGLEWIGWIYPENDNTKYNEKFKDRVTITADTSTSTAYLELSSLRSEDTAVYYCARDGYSRYYFDYWGQGTLVTVSS
VL 2: DIVMTQSPDSLAVSLGERATINCKSSQSLLNSRTRKNYLAWYQQKPGQSPKLLIYWTSTRKSGVPDRFSGSGSGTDFTLTISSLQAEDVAVYYCKQSFILRTFGQGTKVEIK
notes: knob-into-hole TDB; also called 1G7.v93 TDB
Kd [2]: 8.08 nM | koff [2]: 0.000417 s⁻¹ | kon [2]: 51600 M⁻¹ s⁻¹ | Kd [3]: 8.1 nM | Kd [4]: 1.1 nM | koff [5]: 0.000421 s⁻¹ | kon [5]: 395000 M⁻¹ s⁻¹

B2: 38E4.v1 (antibody, V domains shown)
VH: B1 VH 2
VL: B1 VL 2
notes: humanized anti-CD3ε; also called anti-CD3 arm 38E4.v1
Kd (human CD3ε [6]): 0.5 nM | EC50 (human CD3ε [7]): 1 nM

B3: 40G5c (antibody, V domains shown)
VH: B1 VH 2 with F27Y, S31N, E54G, N55D, D56G, D66G, V68A, I70L, G100S, R103N
VL: B1 VL 2 with S49P, T57A, K61E, K95T
notes: humanized anti-CD3ε; also called hu40G5c
Kd (human CD3ε [6]): 51 nM | EC50 (human CD3ε [7]): 13 nM

B4: hu1G7.v1 with heavy chain L29T and S56T (antibody, V domains shown)
VH: B1 VH 1 with S56T, V64M, P103S
VL: B1 VL 1 with L32I, A43S, G51A, S56T, P94S
notes: also called L29T/S56T double mutant
average fold improvement in affinity [8]: 1.2 fold

B5: UCHT1.v9 (antibody, V domains shown)
VH: EVQLVESGGGLVQPGGSLRLSCAASGYSFTGYTMNWVRQAPGKDLEWVALINPYKGVSTYNQKFKDRFTISVDKSKNTAYLQMNSLRAEDTAVYYCARSGYYGDSDWYFDVWGQGTLVTVSS
VL: DIQMTQSPSSLSASVGDRVTITCRASQDIRNYLNWYQQKPGKAPKLLIYYTSRLESGVPSRFSGSGSGTDYTLTISSLQPEDFATYYCQQGNTLPWTFGQGTKLELK
notes: humanized anti-CD3; also called huUCHT1.v9
Kd (human CD3ε [9]): 2.5 nM

B6: h7D8.L1H2 (antibody)
heavy chain: EVQLVESGGGLVQPGGSLRLSCAVSGIDLSSYAMGWVRQAPGKGLEWIGTIGTGGTPYYASWAKGRFTISKDSSKNTVYLQMNSLRAEDTAVYFCARDMYTGSIYYDMWGQGTLVTVSS
light chain: DAQLTQSPSSLSASVGDRVTITCQSSQSVFNNAQLSWYQQKPGKPPKLLIYDTSNLASGVPSRFSGSGSGTDFTLTISSLQPEDFATYYCLGAYTDDADNAFGQGTKVEIK
notes: humanized, rabbit-derived anti-FcRH5 antibody; The sheet prints h7D8.L1H2* with an unexplained asterisk; also called hu7D8.L1H2; Hu7D8.L1H2
koff [10]: 0.00136 s⁻¹ | kon [10]: 1.08e+06 M⁻¹ s⁻¹
